In publication PMC3750073 (Biochemistry, 2013):

Tests used:
[1] = test system: Nc1ccn([C@H]2C[C@H](O)[C@@H](COP(=O)(O)O)O2)c(=O)n1; test: purified protein; settings: pH 7.5; 37.0 °C
[2] = test system: Nc1ccn([C@@H]2O[C@H](COP(=O)(O)O)[C@@H](O)[C@H]2O)c(=O)n1; test: purified protein; settings: pH 7.5; 37.0 °C
crystal structure = target: the molecule itself; test: crystal structure

(Streptomyces rimofaciens)
Km [1]: 5.4 (0.8) mM
kcat/Km [1]: 1.1 M⁻¹ s⁻¹
Km [2]: 3.8 (0.5) mM
kcat/Km [2]: 5.2 M⁻¹ s⁻¹

B1: SeMet MilB (selenomethionine-containing MilB, CMP hydrolase of Streptomyces rimofaciens ZJU5119) (enzyme, UniProt B4Y381 1-170, looked up)
chain: MTTTPKPRTAPAVGSVFLGGPFRQLVDPRTGVMSSGDQNVFSRLIEHFESRGTTVYNAHRREAWGAEFLSPAEATRLDHDEIKAADVFVAFPGVPASPGTHVEIGWASGMGKPMVLLLERDEDYAFLVTGLESQANVEILRFSGTEEIVERLDGAVARVLGRAGEPTVIG
modifications: selenomethionine (SeMet-containing protein)
stoichiometry N (crystal structure): 2
